Drawing on US20060140870A1, “Method for assessing tumor response to cancer treatment” (General Electric Company, priority 2004, published 2006), this text covers relaxivity for 2 substances.

The nature of the data set: Relaxivity (T1) of the contrast agent as a measure of molecular conformation. The data set is classed as physicochemical. The following applies: low for an elongated conformation, high for a globular (folded) one.

As to albumen, the relaxivity result is “about 15 sec.−1 mM−1”.

Turning to “Polylysine-Gd-DTPA [Gd- DTPA polylysine]”, the relaxivity entry is reported as “about 8 sec.−1 mM−1”.
